Measured values as given in patent publication US5472841.

Molecular target: T1, Human neutrophil elastase (Homo sapiens) (UniProt P08246)
T1 sequence: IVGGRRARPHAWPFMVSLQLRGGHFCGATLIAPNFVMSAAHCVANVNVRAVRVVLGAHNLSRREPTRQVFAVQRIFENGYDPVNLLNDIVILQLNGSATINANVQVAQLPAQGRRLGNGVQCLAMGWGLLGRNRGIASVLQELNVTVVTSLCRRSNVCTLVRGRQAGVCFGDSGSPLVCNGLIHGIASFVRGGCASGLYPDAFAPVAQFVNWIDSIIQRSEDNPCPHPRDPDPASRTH
Experiment: filter
Conditions: apparent Kd

CCCCTGCAGGTGATTTTGCTCAAGTNNNNNNNNNNNNNNNNNNNNNNNNNNNNNNNNNNNNNNNNAGTATCGCTAATCAGGCGGATC [random ssDNA pool]
Kd: 250 nM
